Reference: US10450368 (DUKE UNIVERSITY, dated 2019)

Assays:
Con S gp120 = assay: direct-binding ELISA (OD450), panel 'Con S gp120'
SSA [1] = molecular target: T1, SSA; assay: AtheNA, Ab 25 ug/ml
T1 construct: also called SSA (Ro)
Source text: (§1) AtheNA Multi-Lyte ANA Plus Test System is one such assay. This is luminex-based assay, which is also used to screen patient sera.

Sm (Smith antigen) [2] = molecular target: T2, Sm (Smith antigen); assay: AtheNA, Ab 25 ug/ml
T2 construct: Protein complex
Source text: as §1

RNP (ribonucleoprotein) [3] = molecular target: T3, RNP (ribonucleoprotein); assay: AtheNA, Ab 25 ug/ml
T3 construct: Protein-RNA complex
Source text: as §1

Histones [4] = molecular target: T4, Histones; assay: AtheNA, Ab 25 ug/ml
T4 construct: Mixture of proteins
Source text: as §1

Centromere B [5] = molecular target: T5, Centromere B (UniProt P07199 1-599); assay: AtheNA, Ab 25 ug/ml
T5 construct: also called Cent B
T5 sequence: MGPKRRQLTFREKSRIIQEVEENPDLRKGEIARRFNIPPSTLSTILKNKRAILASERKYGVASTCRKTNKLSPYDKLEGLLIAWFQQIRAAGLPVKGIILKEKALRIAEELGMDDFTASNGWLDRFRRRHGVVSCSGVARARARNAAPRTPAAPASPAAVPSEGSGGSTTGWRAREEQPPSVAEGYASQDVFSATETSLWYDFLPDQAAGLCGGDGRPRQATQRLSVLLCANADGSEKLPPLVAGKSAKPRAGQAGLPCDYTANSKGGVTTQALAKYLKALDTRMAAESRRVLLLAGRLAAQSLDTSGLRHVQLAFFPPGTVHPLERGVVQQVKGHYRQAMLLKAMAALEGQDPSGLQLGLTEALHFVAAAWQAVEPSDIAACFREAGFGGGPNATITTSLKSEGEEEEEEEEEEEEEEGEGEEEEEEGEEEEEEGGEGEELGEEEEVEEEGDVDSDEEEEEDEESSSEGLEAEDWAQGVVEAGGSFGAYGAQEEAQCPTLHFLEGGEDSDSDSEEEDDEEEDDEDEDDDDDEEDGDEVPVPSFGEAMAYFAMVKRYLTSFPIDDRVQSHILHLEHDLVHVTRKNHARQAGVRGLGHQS
Source text: as §1

SSA [6] = molecular target: T1, SSA; assay: AtheNA, Ab 50 ug/ml
Source text: as §1

Sm (Smith antigen) [7] = molecular target: T2, Sm (Smith antigen); assay: AtheNA, Ab 50 ug/ml
Source text: as §1

RNP (ribonucleoprotein) [8] = molecular target: T3, RNP (ribonucleoprotein); assay: AtheNA, Ab 50 ug/ml
Source text: as §1

Histones [9] = molecular target: T4, Histones; assay: AtheNA, Ab 50 ug/ml
Source text: as §1

Centromere B [10] = molecular target: T5, Centromere B; assay: AtheNA, Ab 50 ug/ml
Source text: as §1

CH505.TF gp120 delta371I = assay: direct-binding ELISA (OD450), panel 'CH505.TF gp120 delta371I'
CH505w136.B18D8gp120 = assay: ELISA
CH505.TF mutant gp120 M6 [11] = molecular target: T6, CH505.TF mutant gp120 M6 (HIV-1); assay: ELISA
T6 construct: domain: gp120

CH505.M19D8gp120 = assay: ELISA
CH505.M21D8gp120/293F = assay: ELISA
CH505.M11D8gp120/293F = assay: ELISA
CH505.M9D8gp120/293F = assay: ELISA
[12] = molecular target: T7, CH505.TF mutant gp120 M20 (HIV-1); assay: ELISA
T7 construct: domain: gp120

CH505.M5D8gp120293F = assay: ELISA
CH505.TF mutant gp120 M8 = molecular target: T8, CH505.TF mutant gp120 M8 (HIV-1); assay: ELISA
T8 construct: domain: gp120

CH505.M10D8gp120 = assay: ELISA
CH505.M7D8gp120/293F = assay: ELISA
CH505.TF mutant gp120 M6 [13] = molecular target: T6, CH505.TF mutant gp120 M6; assay: direct-binding ELISA (OD450), panel 'CH505.TF gp120 M6'
SSA [14] = molecular target: T1, SSA; assay: AtheNA, Ab 6.25 ug/ml
Source text: as §1

Sm (Smith antigen) [15] = molecular target: T2, Sm (Smith antigen); assay: AtheNA, Ab 6.25 ug/ml
Source text: as §1

RNP (ribonucleoprotein) [16] = molecular target: T3, RNP (ribonucleoprotein); assay: AtheNA, Ab 6.25 ug/ml
Source text: as §1

Histones [17] = molecular target: T4, Histones; assay: AtheNA, Ab 6.25 ug/ml
Source text: as §1

Centromere B [18] = molecular target: T5, Centromere B; assay: AtheNA, Ab 6.25 ug/ml
Source text: as §1

SSA [19] = molecular target: T1, SSA; assay: AtheNA, Ab 12.5 ug/ml
Source text: as §1

Sm (Smith antigen) [20] = molecular target: T2, Sm (Smith antigen); assay: AtheNA, Ab 12.5 ug/ml
Source text: as §1

RNP (ribonucleoprotein) [21] = molecular target: T3, RNP (ribonucleoprotein); assay: AtheNA, Ab 12.5 ug/ml
Source text: as §1

Histones [22] = molecular target: T4, Histones; assay: AtheNA, Ab 12.5 ug/ml
Source text: as §1

Centromere B [23] = molecular target: T5, Centromere B; assay: AtheNA, Ab 12.5 ug/ml
Source text: as §1

CH505w030.20D8gp120/293F = molecular target: T9, CH505w030.20D8gp120/293F; assay: ELISA
T9 construct: also called CH505w30.20 gp120

CH505.w30.12D8gp120 = molecular target: T10, CH505.w30.12D8gp120; assay: ELISA
T10 construct: also called CH505w30.12 gp120

CH0505_CON D7gp120/293i = assay: ELISA
CH505w020.14D8gp120 = molecular target: T11, CH505w020.14D8gp120; assay: ELISA
T11 construct: also called CH505w20.14 gp120

B1: CH491 (antibody, V domains shown)
VH: QVQLVQSGAAVKRPGASVTISCRASGYTFTTYYIHWVRQAPGQGLELMGWINPRGGRTDYSYRFEDRVSMYRDTSMSIVYMDLRNLKSADTAVYYCVRNVGTSGSLLHYDFWGQGSLVTVSS
VL: EIVLTQSPATLSVSPGERVTLSCRASQSVRNNLAWYRQKRGQAPRLLIYGASTRATGIPARFSGSGSGTEFTLTISSMQSEDFAVYYCQQYNNWWTFGQGTKVEIK
notes: also called CH235.7; DH491
- EC50 (read off the curve) (Con S gp120): ~0.05 µg/mL
- AtheNA signal (SSA [1]): 44
- AtheNA signal (Sm (Smith antigen) [2]): 4
- AtheNA signal (RNP (ribonucleoprotein) [3]): 30
- AtheNA signal (Histones [4]): 44
- AtheNA signal (Centromere B [5]): 45
- AtheNA signal (SSA [6]): 68
- AtheNA signal (Sm (Smith antigen) [7]): 6
- AtheNA signal (RNP (ribonucleoprotein) [8]): 43
- AtheNA signal (Histones [9]): 59
- AtheNA signal (Centromere B [10]): 54
- EC50 (read off the curve) (CH505.TF gp120 delta371I): ~8 µg/mL
- LogAUC (CH505w136.B18D8gp120): 3.53
- LogAUC (CH505.TF mutant gp120 M6 [11]): 9.21
- LogAUC (CH505.M19D8gp120): 6.61
- LogAUC (CH505.M21D8gp120/293F): 0
- LogAUC (CH505.M11D8gp120/293F): 6.75
- LogAUC (CH505.M9D8gp120/293F): 0
- LogAUC [12]: 0
- LogAUC (CH505.M5D8gp120293F): 10.6
- LogAUC (CH505.TF mutant gp120 M8): 0
- LogAUC (CH505.M10D8gp120): 10.6
- LogAUC (CH505.M7D8gp120/293F): 0
- EC50 (read off the curve) (CH505.TF mutant gp120 M6 [13]): ~0.2 µg/mL
- AtheNA signal (SSA [14]): 21
- AtheNA signal (Sm (Smith antigen) [15]): 4
- AtheNA signal (RNP (ribonucleoprotein) [16]): 18
- AtheNA signal (Histones [17]): 26
- AtheNA signal (Centromere B [18]): 26
- AtheNA signal (SSA [19]): 28
- AtheNA signal (Sm (Smith antigen) [20]): 3
- AtheNA signal (RNP (ribonucleoprotein) [21]): 24
- AtheNA signal (Histones [22]): 34
- AtheNA signal (Centromere B [23]): 34
- LogAUC (CH505w030.20D8gp120/293F): 8.82
- LogAUC (CH505.w30.12D8gp120): 3.89
- LogAUC (CH0505_CON D7gp120/293i): 9.64
- LogAUC (CH505w020.14D8gp120): 9.35
